Measured values taken from EP4574843A1 (Numab Therapeutics AG, dated 2025).

B1: PRO3744, scFv (VL-linker-VH) 68-18-E11-sc07_(VL_A67G_S68G_T141C; VH_G51C_T101S_T146K) (scFv)
scFv: DVQMTQSPSSLSASVGDRVTITCQASQSIGSNLAWYQQKPGKPPKLLIYKGGTLESGVPSRFSGSGSGTDFTLTISSLQPEDFATYYCQSTAGSSRSGNYGYVFGCGTKVTVLGGGGGSGGGGSGGGGSGGGGSQQLVESGGGLVQPGGSLRLSCAASGFSFTNNYYMCWVRQAPGKCLEWIACMLVGAWGNTYYASWANGRFTISKDNSKNTVYLQMNSLRAEDSAVYFCARARDYTWTLGGDPETSGFNLWGQGTLVKVSS
B2: PRO3696, scFv (VL-linker-VH) 69-01-E02-sc06_(VL_A67G_S68G; VH_T101S_L146K) (scFv)
scFv: DVQMTQSPSSLSASVGDRVTITCQASQSIGLNLAWYQQKPGKPPKLLIYAGGYLASGVSSRFSGSGSGTDFTLTISSLQPEDFATYYCQSTYDGSSFVFAFGTGTKVTVLGGGGGSGGGGSGGGGSGGGGSQEQLVESGGGLVQPGGSLRLSCAASGFSFSSSSYMCWVRQAPGKGLEWIACMVTGSSDDTDYASWAKGRFTISKDNSKNTVYLQMNSLRAEDSAVYFCARAGSAPLWGQGTLVKVSS
B3: PRO3697, scFv (VL-linker-VH) 69-06-G04-sc05_(VL_A67G_S68G; VH_T101S_L146K) (scFv)
scFv: AFQLTQSPSSLSASVGDRVTITCQASQSIGTYLAWYQQKPGKPPKLLIYRGGTLASGVPSRFSGSGSGTDFTLTISSLQPEDFATYYCQSYDSSNTFGTGTKVTVLGGGGGSGGGGSGGGGSGGGGSQEQLVESGGGLVQPGRSLRLSCAASGFDLSADYMCWVRQAPGKGLEWIACIYIDDDNTYYATWAKGRFTISKDNSKNTVYLQMNSLRAEDSAVYFCARGYGVYTGAITYFTLWGQGTLVKVSS
B4: PRO4710 (IgG4 of scFv PRO3744, 68-18-E11-sc07) (antibody, V domains shown)
VH: QQLVESGGGLVQPGGSLRLSCAASGFSFTNNYYMCWVRQAPGKGLEWIACMLVGAWGNTYYASWANGRFTISKDNSKNTVYLQMNSLRAEDTAVYFCARARDYTWTLGGDPETSGFNLWGQGTLVTVSS
VL: DVQMTQSPSSLSASVGDRVTITCQASQSIGSNLAWYQQKPGKPPKLLIYKGGTLESGVPSRFSGSGSGTDFTLTISSLQPEDFATYYCQSTAGSSRSGNYGYVFGQGTKVEIKR
B5: PRO4672 (37-20-B03-based PDL1-BD), anti-CD47 x PDL1 x LILRB2, (scFv)2-Fc-(scFv)2 (trispecific antibody)
chain 1: DVQMTQSPSSLSASVGDRVTITCQASQSISSWVSWYQQKPGKPPKLLIYRGGYLESGVPSRFSASGSGTDFTLTISSLQPEDFATYYCQSTDSSTYGGAFGCGTKVTVLGGGGGSGGGGSGGGGSGGGGSQQVVESGGGLVQPGGSLRLSCAVSGIDLNSYAMTWVRQAPGKCLEWIGYIGSASSTYYASWASGRFTISKDNSKNTVYLQMNSLRAEDSAVYFCARGSTYINIWGQGTLVKVSSEPKSSDKTHTCPPCPAPELLGGPSVFLFPPKPKDTLMISRTPEVTCVVVDVSHEDPEVKFNWYVDGVEVHNAKTKPREEQYNSTYRVVSVLTVLHQDWLNGKEYKCKVSNKALPAPIEKTISKAKGQPREPQVYTLPPCREEMTKNQVSLSCAVKGFYPSDIAVEWESNGQPENNYKTTPPVLDSDGSFFLVSKLTVDKSRWQQGNVFSCSVMHEALHNHYTQKSLSLSPGKGGGGSGGGGSDVQMTQSPSSLSASVGDRVTITCQASQSIGSNLAWYQQKPGKPPKLLIYKGGTLESGVPSRFSGSGSGTDFTLTISSLQPEDFATYYCQSTAGSSRSGNYGYVFGCGTKVTVLGGGGGSGGGGSGGGGSGGGGSQQLVESGGGLVQPGGSLRLSCAASGFSFTNNYYMCWVRQAPGKCLEWIACMLVGAWGNTYYASWANGRFTISKDNSKNTVYLQMNSLRAEDSAVYFCARARDYTWTLGGDPETSGFNLWGQGTLVKVSS
chain 2: not shown
B6: PRO4687 (37-20-B03-based PDL1-BD), anti-CD47 x PDL1 x LILRB2 (trispecific antibody, human IgG1, kappa)
chain: B5 chain 1
heavy: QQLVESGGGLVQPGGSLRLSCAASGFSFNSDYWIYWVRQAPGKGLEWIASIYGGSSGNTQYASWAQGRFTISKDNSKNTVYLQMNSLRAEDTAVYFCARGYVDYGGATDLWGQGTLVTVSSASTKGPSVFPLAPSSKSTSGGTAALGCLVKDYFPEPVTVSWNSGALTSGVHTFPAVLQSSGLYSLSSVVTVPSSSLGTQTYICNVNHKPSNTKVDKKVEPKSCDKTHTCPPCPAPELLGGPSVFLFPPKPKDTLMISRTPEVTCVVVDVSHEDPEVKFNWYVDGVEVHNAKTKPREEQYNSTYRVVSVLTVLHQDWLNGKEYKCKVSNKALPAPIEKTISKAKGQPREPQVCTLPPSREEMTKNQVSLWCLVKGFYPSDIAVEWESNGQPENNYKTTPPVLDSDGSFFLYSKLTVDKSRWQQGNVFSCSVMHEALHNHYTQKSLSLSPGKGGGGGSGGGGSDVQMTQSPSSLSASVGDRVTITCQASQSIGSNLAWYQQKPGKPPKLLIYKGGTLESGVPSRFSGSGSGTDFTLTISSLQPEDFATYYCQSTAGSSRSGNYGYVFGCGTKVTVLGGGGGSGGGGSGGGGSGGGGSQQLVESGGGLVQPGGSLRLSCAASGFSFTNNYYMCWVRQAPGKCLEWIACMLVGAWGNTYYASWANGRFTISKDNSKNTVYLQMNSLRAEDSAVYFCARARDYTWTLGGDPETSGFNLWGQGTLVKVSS
light: DIQMTQSPSSLSASVGDRVTITCQASQSIGTYLAWYQQKPGKPPKLLIYRGGILASGVPSRFSGSGSGTDFTLTISSLQPEDFATYYCQSNFYSDSTTIGPNAFGQGTKVEIKRTVAAPSVFIFPPSDEQLKSGTASVVCLLNNFYPREAKVQWKVDNALQSGNSQESVTEQDSKDSTYSLSSTLTLSKADYEKHKVYACEVTHQGLSSPVTKSFNRGEC
B7: PRO5052 (PRO4672 with 33-03-G02-based PDL1-BD), anti-CD47 x PDL1 x LILRB2, (scFv)2-Fc-(scFv)2 (trispecific antibody)
chain 1: B5 chain 1
chain 2: not shown
B8: PRO5055 (PRO4687 with 33-03-G02-based PDL1-BD), anti-CD47 x PDL1 x LILRB2 (trispecific antibody, human IgG1, kappa)
chain: B5 chain 1
heavy: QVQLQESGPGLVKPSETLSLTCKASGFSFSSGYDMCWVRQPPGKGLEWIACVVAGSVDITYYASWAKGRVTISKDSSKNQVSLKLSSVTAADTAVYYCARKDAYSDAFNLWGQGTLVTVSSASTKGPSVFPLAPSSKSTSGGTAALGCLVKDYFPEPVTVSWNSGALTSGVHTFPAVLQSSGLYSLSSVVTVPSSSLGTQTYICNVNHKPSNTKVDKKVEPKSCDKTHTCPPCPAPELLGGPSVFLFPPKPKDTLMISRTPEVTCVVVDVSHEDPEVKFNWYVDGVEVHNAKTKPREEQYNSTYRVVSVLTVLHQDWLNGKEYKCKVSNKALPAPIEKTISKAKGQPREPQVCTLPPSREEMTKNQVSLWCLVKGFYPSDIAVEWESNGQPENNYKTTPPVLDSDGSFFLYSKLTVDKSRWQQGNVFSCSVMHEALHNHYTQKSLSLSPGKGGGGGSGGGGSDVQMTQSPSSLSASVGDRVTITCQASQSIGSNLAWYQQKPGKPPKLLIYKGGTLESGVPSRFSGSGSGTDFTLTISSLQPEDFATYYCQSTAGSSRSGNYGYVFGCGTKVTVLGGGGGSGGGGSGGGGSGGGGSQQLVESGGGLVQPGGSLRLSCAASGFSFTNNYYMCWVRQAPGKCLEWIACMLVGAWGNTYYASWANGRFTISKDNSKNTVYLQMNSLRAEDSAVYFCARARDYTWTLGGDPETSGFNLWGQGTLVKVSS
light: DIQMTQSPSSLSASVGDRVTITCQASQSINDYLAWYQQKPGKAPKLLIYKGGTLASGVPSRFSGSGSGTDFTLTISSLQPEDFATYYCQQGYIITDIDNVFGQGTKVEIKRTVAAPSVFIFPPSDEQLKSGTASVVCLLNNFYPREAKVQWKVDNALQSGNSQESVTEQDSKDSTYSLSSTLTLSKADYEKHKVYACEVTHQGLSSPVTKSFNRGEC

biological target: T1, LILRB2 on human monocyte-derived macrophages (HMDM) (human, UniProt Q8N423 22-597); assay: cell-based or functional assay
T1 sequence (Q8N423 22-597): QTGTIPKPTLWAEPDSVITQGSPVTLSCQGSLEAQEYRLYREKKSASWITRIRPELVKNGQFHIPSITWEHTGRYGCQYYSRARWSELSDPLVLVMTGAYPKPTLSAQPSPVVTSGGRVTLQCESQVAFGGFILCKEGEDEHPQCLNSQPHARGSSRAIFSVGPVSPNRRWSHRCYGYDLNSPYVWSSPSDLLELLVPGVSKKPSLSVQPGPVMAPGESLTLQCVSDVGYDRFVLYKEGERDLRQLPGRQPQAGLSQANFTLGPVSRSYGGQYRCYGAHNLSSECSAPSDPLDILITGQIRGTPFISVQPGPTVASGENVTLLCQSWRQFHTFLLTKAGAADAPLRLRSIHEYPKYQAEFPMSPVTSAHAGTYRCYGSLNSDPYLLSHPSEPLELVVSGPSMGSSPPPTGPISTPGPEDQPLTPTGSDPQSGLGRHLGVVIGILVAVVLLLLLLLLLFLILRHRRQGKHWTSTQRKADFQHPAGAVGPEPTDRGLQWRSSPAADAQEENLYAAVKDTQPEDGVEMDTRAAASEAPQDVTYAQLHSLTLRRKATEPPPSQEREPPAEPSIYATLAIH

Row | Binder | CD86 EC50 [nM], re-polarization of M2 macrophages [nM] | CD163 EC50 [nM], re-polarization of M2 macrophages [nM] | CD206 EC50 [nM], re-polarization of M2 macrophages [nM] | IL-1β EC50 [nM], LPS-driven cytokine secretion by HMDM [nM] | IL-6 EC50 [nM], LPS-driven cytokine secretion by HMDM [nM] | TNF-α EC50 [nM], LPS-driven cytokine secretion by HMDM [nM]
1 | B1 | 0.117 | 0.107 | 0.136 | 0.779 | 0.803 | 1.1
2 | B2 | 0.243 | 0.371 | 0.587 | 0.446 | 0.804 | 0.891
3 | B3 | 0.214 | 0.173 | 0.512 | 0.279 | 0.45 | 2.2

biological target: T1, LILRB2 on human monocyte-derived …; assay: cell-based or functional assay; remark: another data set of the same source

Row | Binder | IL-1β EC50 [nM], LPS-driven cytokine secretion by HMDM [nM] | IL-6 EC50 [nM], LPS-driven cytokine secretion by HMDM [nM] | TNF-α EC50 [nM], LPS-driven cytokine secretion by HMDM [nM]
4 | B4 | 0.248 | 0.153 | 0.169
5 | B5 | 0.096 | 0.078 | 0.123
6 | B6 | 0.205 | 0.097 | 0.175
7 | B7 | 0.082 | 0.077 | 0.117
8 | B8 | 0.0705 | 0.063 | 0.141
